# Experiment: soluble on expression in E. coli; label from the status in PepcDB or PDB records
row,Sequence,soluble on expression in E. coli
1,MPTSSTPPIVYETDLEPIYYQDCYCHKELVFCKNWKFGGEIFKYNSSGTNSSIRRVQFDCCVYKDQEIDEEMSEKVKTFKGTLDPRQVVQNNCFQHLSPLYSKFCEHYGHMIGFFWNSLKDTVMAYDIADGLFQETKDCGCCLFHKDVYLTNHIFFEKSHRDEYGQTIICMDINWHTKEHGKMSIFFNSQGFFGEYRWNRVAQCFKLMKQLDVKTTEYEVADRTDDEKNWSSFSYDAIHFLEQEYRKTKYISSTDCQKISEKIHLDEELIEKWFRARRATSKREANSNEDIFTSQYQQTKLTMKDGTEGYFLRKNHEYFKKIVVTVGFSDGSVKPCVWIEKISEYQIIDQETWRLKFENSRVMAIDAEAREQVHRQRKLNSNEKRKEEEAENEQEKLFKEMAELEIQNYRILPNSSDKRLEEHELKTQSSTLPKPCAHAQAQAHAQAQAHAQAHETNDNWPKLMTELFRALLQGQSLTQQHMQRLVHLRTQPDFNRRSYAGHELTAMEMEALKQLLNLLNGKEMPTGKKEEVEGSGLTISEAHGTVGSPMLIEKKEELEGSLEHQPTMANEEIDQNLKEETTTKPEYRKKLRMSKRKQNELLQKLWLKEKNTENTHAEKTNQEKKLTENAVQEQLEQMMKMIQEERRAADSKNLKLEQMVLEMKDKLDAQETRIKELEEVIKSDKNAKKGEQLTDPTEPQYTEAPNAEVGHKSNISSSIGNDVDLLEDDSGED,not soluble
2,FGNFNFNTNFVFGYAKNRVDYKAEAQQKYEWLRETGRQIGQPFGYHWIGYYTPEDIEKINSGAADAPAKPDIAVQAGDLKYADLNGDGTINDFDKRAIGKPNLPTTTLGWTIGGSWKGFSISVLFQGSFDYSFAINGTGIESGKSQFQPLHQKRWTQERYENGESIEFPRLTMQDGTINSASAYNSDFWLINAWYIRLKTVDLGYQLPKTALPKFLDNVRFYVNAYNLLTFTGYDKYQQDPEIKTNTAGDAYMNQRVINFGVQLGF,not soluble
3,LYAPLVSLMITVPVFGQHEYTHALVADLEREGADYLIVDNRGDYPRIGTERVSTPGENLGWAGGSELGFRLAFAEGYSHAMTLNNDTRVSKGFVAALLDSRLPADAGMVGPMFDVGFPFAVADEKPDAESYVPRARYRKVPAVEGTALVMSRDCWDAVGGMDLSTFGRYGWGLDLDLALRARKSGYGLYTTEMAYINHFGRKTANTHFGGHRYHWGASAAMIRGLRRTHGWPAAMGILREMGMAHHRKWHKSFPLTCPASC,not soluble
4,METGGGAPLTKSSEAVEGDFVEDRLRGNEAFRRGNYEAAASYYSEALEKIRLAKTELPTQDRYPWSLEEVLIRCNRALVFLRLASAAALPNVGSNRFEEDACTAEHESEEATPCSLWQRAAEDASVALDLITDFEDEGESERVTELRVKALYRRMVANKGQNNFADAAKDAEALAKIRPEYRSEAELLAQRAAAESERAKQEALQKLKEVGNSFLSLFGVSIDNFQTKRNPDGTYSVSYCPKS,not soluble
5,MGLDDALIFTRVVEYHSFTQAAQSLGMQKSTVSRRIALLEERLGVRLLNRTTRKLRLTEVGQAYYERCRQIMHDFAEAEQAVMQLQQAPSGLLRITSPIEFGQMFLASLLGDFMRQYPQITAEVELASRSVDPLQEGVDIVIMVGQPEDSTLVARRLLSTSRWLCASPDYLAAHGTPTSVAELAGHRAVLLSTDSQRYWPLSGDSLPCQRVLSCNNITFAREAVVAGAGIAALPALICAESVHSGRLVRLLADVPLPVGELYAVYPSRRFQAMKVKAFLDFLISRLPADTGRLLEPEAARLITSRP,not soluble
6,MPLGLLWLGLALLGALHAQAQDSTSDLIPAPPLSKVPLQQNFQDNQFQGKWYVVGLAGNAILREDKDPQKMYATIYELKEDKSYNVTSVLFRKKKCDYAIATFVPGSQPGEFTLGNIKSYPGLTSYLVRVVSTNYNQHAMVFFKKVSQNREYFKITLYGRTKELTSELKENFIRFSKSLGLPENHIVFPVPIDQCIDG,soluble
7,MNYHTFCPISCVSWLYQKIEDSFFLVIGTKTCGYFLQNAMGVMIFAEPRYAMAELEEGDISAQLKDYEELKRLCLQIKRDRNPSVIVWIGTCTTEIIKMDLEGLAPQLEAEIGIPIVTARANGLDYAFTQGEDTVLASMAHKCPTSAQVQGEDKELEHHHHHH,soluble
8,ELVMTQSPLSLPVSLGDQASISCRPSQSLVHSNGNTYLHWYLQKPGQSPKLLIYRVSNRFSGVPDRFSGSGSGTAFTLKISRVEAEDLGVYFCSQGTHVPYTFGGGTKLELKRADAAPTVSIFPPSSEQLTSGGASVVCFLNNFYPKDINVKWKIDGSERQNGVLNSWTDQDSKDSTYSMSSTLTLTKDEYERHNSYTCEATHKTSTSPIVKSFNRNEC,soluble

# From the DeepSol protein solubility set
